B1: Zinc finger CCCH domain-containing protein 7B (Homo sapiens), Q9UGR2 (parent)
chain: MERQKRKADIEKGLQFIQSTLPLKQEEYEAFLLKLVQNLFAEGNDLFREKDYKQALVQYMEGLNVADYAASDQVALPRELLCKLHVNRAACYFTMGLYEKALEDSEKALGLDSESIRALFRKARALNELGRHKEAYECSSRCSLALPHDESVTQLGQELAQKLGLRVRKAYKRPQELETFSLLSNGTAAGVADQGTSNGLGSIDDIETDCYVDPRGSPALLPSTPTMPLFPHVLDLLAPLDSSRTLPSTDSLDDFSDGDVFGPELDTLLDSLSLVQGGLSGSGVPSELPQLIPVFPGGTPLLPPVVGGSIPVSSPLPPASFGLVMDPSKKLAASVLDALDPPGPTLDPLDLLPYSETRLDALDSFGSTRGSLDKPDSFMEETNSQDHRPPSGAQKPAPSPEPCMPNTALLIKNPLAATHEFKQACQLCYPKTGPRAGDYTYREGLEHKCKRDILLGRLRSSEDQTWKRIRPRPTKTSFVGSYYLCKDMINKQDCKYGDNCTFAYHQEEIDVWTEERKGTLNRDLLFDPLGGVKRGSLTIAKLLKEHQGIFTFLCEICFDSKPRIISKGTKDSPSVCSNLAAKHSFYNNKCLVHIVRSTSLKYSKIRQFQEHFQFDVCRHEVRYGCLREDSCHFAHSFIELKVWLLQQYSGMTHEDIVQESKKYWQQMEAHAGKASSSMGAPRTHGPSTFDLQMKFVCGQCWRNGQVVEPDKDLKYCSAKARHCWTKERRVLLVMSKAKRKWVSVRPLPSIRNFPQQYDLCIHAQNGRKCQYVGNCSFAHSPEERDMWTFMKENKILDMQQTYDMWLKKHNPGKPGEGTPISSREGEKQIQMPTDYADIMMGYHCWLCGKNSNSKKQWQQHIQSEKHKEKVFTSDSDASGWAFRFPMGEFRLCDRLQKGKACPDGDKCRCAHGQEELNEWLDRREVLKQKLAKARKDMLLCPRDDDFGKYNFLLQEDGDLAGATPEAPAAAATATTGE

Variants of: B1
Conditions: with nsp3_rots4 nsp3, Q00721
nsp3_rots4 nsp3, Q00721, sequence (Q00721 whole entry): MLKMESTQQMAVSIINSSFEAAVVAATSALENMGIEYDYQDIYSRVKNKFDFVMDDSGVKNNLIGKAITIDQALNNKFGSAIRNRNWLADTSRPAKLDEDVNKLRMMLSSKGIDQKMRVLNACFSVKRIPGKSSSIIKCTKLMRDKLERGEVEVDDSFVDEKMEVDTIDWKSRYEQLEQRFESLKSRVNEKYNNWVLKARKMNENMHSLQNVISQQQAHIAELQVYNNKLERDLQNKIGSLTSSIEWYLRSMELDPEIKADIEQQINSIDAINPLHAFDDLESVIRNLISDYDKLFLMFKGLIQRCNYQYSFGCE

Variant | effect of a mutation on the interaction
L252A;D253A;D254A | decreasing interaction
